How the values were obtained:
[1] = Stability and tolerance of transplanted skin organoids in immunocompetent hosts; assay type: in vivo, mouse; settings: isogenic hosts CD1 and C57BL/6
Source text: For grafting with skin organoids, CD1 (isogenic mouse keratinocyte transplantation) males or Nude (human keratinocyte transplantation) females with the ages of 6-8 weeks were anesthetized. A silicone chamber bottom with the interior diameter of 0.8 cm and the exterior diameter of 1.5 cm was implanted on its shaved dorsal mid-line skin, which was used to hold the skin graft. A chamber cap was installed to seal the chamber right after a piece of graft was implanted. About one week later, the chamber cap was removed to expose the graft to air. A single dose of 0.2 mg α-CD4 (GK1.5) and 0.2 mg α-CD8 (2.43.1) antibodies was administered intraperitoneally for skin grafting.
Optical imaging was performed in the integrated small animal imaging research resource (iSAIRR) at the University of Chicago. Bioluminescence images were acquired on an IVIS Spectrum (Caliper Life Sciences®, Alameda, CA) after animal was injected with luciferin (100 mg/kg). […]
Grafted cells in immunocompetent hosts readily expressed exogenous genes, such as Luciferase and Histone H2B-RFP (FIG. 1B-D), which were transduced to the cells with lentivirus. […] Importantly, the tissue organoid with expression of exogenous gene, such as Luciferase and H2B-RFP, was stable in vivo for more than 5 months in immunocompetent hosts, as determined by intravital bioluminescence imaging and tissue histology. […]

[2] = test system: mouse epidermal stem cells; experiment: Cell proliferation and differentiation of engineered mouse epidermal cells in vitro (cell cycle FACS, calcium shift western blot); assay type: cell-based
Method: Primary human neonatal epidermal keratinocytes were obtained from Thermo Fischer® (C0015C), and cultured with Epilife® medium (Thermo Fischer, M-EPICF-500) with manufacturer's recommended procedures. Calcium shift was performed to induce differentiation of primary keratinocytes by increasing the calcium concentration in culture media to 1.5 mM.
Propidium iodide (PI) staining followed by flow cytometry were used to determine the effect of cell cycle profiles. Mouse and human epidermal cells were cultured in two 6 cm cell culture dish for 24 hours, respectively. Cells were trypsinized, and 1×10^5 cells from each dish were collected, followed by one PBS wash. […] After staining, the cells were analyzed immediately using flow cytometer BD FACSCanto™ II (BD Biosciences, San Jose, CA) with an excitation wavelength at 488 nm and emission at 585 nm. DNA content and histograms of cell cycle distribution were analyzed using FlowJo™ software, version 10 (FLOWJO LLC, OR).
Western blotting was performed as described previously (Blanpain et al.). […] Visualization and quantification was carried out with the LI-COR Odyssey® scanner and software (LI-COR Biosciences).
Propidium iodide (PI) staining followed by flow cytometry were used to determine the effect of cell cycle profiles. […] DNA content and histograms of cell cycle distribution were analyzed using FlowJo™ software, version 10 (FLOWJO LLC, OR). […]

[3] = cocaine hydrolysis; cited from earlier work
mouse epidermal cells = experiment: Expression and secretion of hBChE by immunoblots and ELISA (mouse epidermal cells); settings: engineered mouse epidermal cells

B1: hBChE: modified human butyrylcholinesterase (E30-6, SEQ ID NO: 41), cocaine hydrolase, expressed from engineered epidermal cells / skin grafts (protein)
chain: MHSKVTIICIRFLFWFLLLCMLIGKSHTEDDIIIATKNGKVRGMNLTVFGGTVTAFLGIPYAQPPLGRLRFKKPQSLTKWSDIWNATKYANSCCQNIDQSFPGFHGSEMWNPNTDLSEDCLYLNVWIPAPKPKNATVLIWIYGGGFQTGTSSLHVYDGKFLARVERVIVVSMNYRVGALGFLALPGNPEAPGNMGLFDQQLALQWVQKNIAAFGGNPKSVTLFGESSGAASVSLHLLSPGSHSLFTRAILQSGSANAPWAVTSLYEARNRTLNLAKLTGCSRENETEIIKCLRNKDPQEILLNEAFVVPYGTALGVNFGPTVDGDFLTDMPDILLELGQFKKTQILVGVNKDEGTWFLVGGAPGFSKDNNSIITRKEFQEGLKIFFPGVSEFGKESILFHYTDWVDDQRPENYREALGDVVGDYNFICPALEFTKKFSEWGNNAFFYYFEHRSSKLPWPEWMGVMHGYEIEFVFGLPLERRDNYTKAEEILSRSIVKRWANFAKYGNPNETQNNSTSWPVFKSTEQKYLTLNTESTRIMTKLRAQQCRFWTSFFPKVLEMTGNIDEAEWEWKAGFHRWNNYMMDWKNQFNDYTSKKESCVGL
modifications: Human mutant BChE
- time without significant rejection of skin grafts [1]: at least 5 months
- effect of expression on cell proliferation / differentiation in vitro [2]: did not significantly change cell proliferation
- catalytic efficiency (kcat/KM) relative to wild-type (WT) hBChE [3]: more than 4400 times
- expression and secretion of hBChE (mouse epidermal cells): robust expression and secretion of hBChE

Reference: patent US20230392126A1, “TISSUE ORGANOIDS” (priority 2016, published 2023)
